Assay [1] has as its target T1, human TIGIT fused to a beta galactosidase portion, on YTS cells (YTS_hTIGIT/hGrb2) (human, UniProt Q495A1 22-244).
T1 sequence (looked up): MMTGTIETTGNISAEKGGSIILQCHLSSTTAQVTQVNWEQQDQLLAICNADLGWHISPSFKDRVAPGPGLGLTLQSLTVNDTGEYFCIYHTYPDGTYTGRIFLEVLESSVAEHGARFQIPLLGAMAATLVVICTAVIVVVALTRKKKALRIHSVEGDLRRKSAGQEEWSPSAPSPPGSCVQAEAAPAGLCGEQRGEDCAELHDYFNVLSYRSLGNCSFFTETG
The assay can be described thus: cell-based or functional assay.

In assay [2] the target is T2, mouse TIGIT-Fc (mouse, UniProt P86176 29-148).
T2 construct: extracellular domain; also called TIGIT-ECD; not shown: Fc
T2 sequence (looked up): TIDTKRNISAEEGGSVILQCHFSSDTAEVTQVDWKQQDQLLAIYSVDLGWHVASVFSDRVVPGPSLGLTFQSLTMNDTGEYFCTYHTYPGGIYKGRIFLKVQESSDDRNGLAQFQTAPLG
Description: comp. ELISA vs PVR. As for the experimental part:
(§1) Antibodies were serially diluted in a 10-point curve starting at 1 μM in 3-fold steps. […] Units are in microM.

The target in assay [3] is T3, biotinylated human TIGIT (human, UniProt Q495A1 22-141, biotinylated (EZ-Link NHS-PEG4-biotin kit)).
T3 construct: extracellular domain; also called TIGIT-ECD
T3 sequence (looked up): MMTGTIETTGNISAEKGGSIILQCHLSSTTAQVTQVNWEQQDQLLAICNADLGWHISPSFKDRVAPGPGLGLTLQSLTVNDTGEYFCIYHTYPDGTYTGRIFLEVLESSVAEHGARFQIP
The assay can be described thus: comp. ELISA vs PVR. How it is done:
as §1

The target of assay [4] is T4, His-tagged recombinant Mouse TIGIT (mouse, UniProt P86176 29-148, limits assumed).
T4 construct: coated antigen of the direct ELISA; not shown: His tag
T4 sequence (looked up): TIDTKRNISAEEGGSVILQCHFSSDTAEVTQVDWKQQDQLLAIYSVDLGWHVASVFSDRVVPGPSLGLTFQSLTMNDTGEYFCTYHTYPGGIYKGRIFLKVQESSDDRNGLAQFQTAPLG
Description: ELISA. How it is done: (§2) Binding affinities for antigen binding to anti-TIGIT monoclonal antibodies were determined by ELISA. […] Antibodies to be tested were diluted to 1 μM in PBS buffer containing 1% BSA and diluted 3-fold in a 10-point curve. […] Detection of the secondary antibody was determined using streptavidin-HRP and TMB reagent. All assays were performed at room temperature. Curve-fitting software was used to determine the EC₅₀ for each antibody.
On the technique in general: In an ELISA, binding on a coated surface is turned into a signal by an enzyme label.

Assay [5] has as its target T5, His-tagged recombinant Human TIGIT (human, UniProt Q495A1 22-141).
T5 construct: coated antigen of the direct ELISA; not shown: His tag
T5 sequence (looked up): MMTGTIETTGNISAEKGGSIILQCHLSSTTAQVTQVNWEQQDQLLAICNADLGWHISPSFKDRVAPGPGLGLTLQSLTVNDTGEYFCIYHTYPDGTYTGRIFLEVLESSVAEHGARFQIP
The assay can be described thus: ELISA. How it is done:
as §2

A value given as a limit tells only on which side of the number the result lay.

The IC50 is the concentration needed to halve the response being measured. Read a high IC50 as weaker potency in that assay. One may read the EC50 as the concentration that produces a half-maximal response.

B1: Ab40i4 (antibody, V domains shown)
VH: EVQLLESGGGLVQPGGSLRLSCAASGFTFSSYSMNWVRQAPGKGLEWVAGIKSSSGNKYYADSVKGRFTISRDNSKNTLYLQMNSLRAEDTAVYYCARGPYDVWMDYWGQGTLVTVSS
VL: not shown
On to B1, for which the “YTS_hTIGI/hGrbs_EFC_Agonism, 221_WT” value in assay [1] was 0.0007 µM. The “YTS_hTIGI/hGrbs_EFC_Antagonism, 221_hPVR/ICAM” value in assay [1] was determined as 1.63 µM. The IC50 in assay [2] is 11.1 nM; in assay [3], 3 nM. Further, the concentration for a half-maximal effect (EC50) in assay [4] stood at 2.5 nM; in assay [5], 0.3 nM.

B2: Ab22i1 (antibody, V domains shown)
VH: EVQLLESGGGLVQPGGSLRLSCAASGFTFSSYSMHWVRQAPGKGLEWVASIKSSGGSKYYADSVKGRFTISRDNSKNTLYLQMNSLRAEDTAVYYCARVPYDYWMDYWGQGTLVTVSS
VL: not shown
notes: hIgG1 of Ab22
Consider B2, for which the “YTS_hTIGI/hGrbs_EFC_Antagonism, 221_hPVR/ICAM” value in assay [1] is 0.16 µM. Further, the IC50 stood at 0.5 nM in assay [2] and 1.5 nM in assay [3]. Moreover, the EC50 in assay [4] was 0.3 nM; in assay [5], 0.7 nM.

B3: Ab15i2 (antibody, V domains shown)
VH: EVQLLESGGGLVQPGGSLRLSCAASGFTFSSYSMHWVRQAPGKGLEWVASIWSNSGNTGYADSVKGRFTISRDNSKNTLYLQMNSLRAEDTAVYYCARVPYDYWMDYWGQGTLVTVSS
VL: not shown
notes: mIgG2a of Ab15
Consider B3, for which the “YTS_hTIGI/hGrbs_EFC_Agonism, 221_WT” value in assay [1] is above 1 µM. In addition, the “YTS_hTIGI/hGrbs_EFC_Antagonism, 221_hPVR/ICAM” value in assay [1] came to 0.275 µM. The results for the IC50 in assay [2] and in assay [3] were 1.6 nM and 10.9 nM, respectively. In addition, the results for the EC50 in assay [4] and in assay [5] were 2.7 nM and 21.6 nM, respectively.

B4: Ab28i1 (antibody, V domains shown)
VH: EVQLLESGGGLVQPGGSLRLSCAASGFTFSSYSMHWVRQAPGKGLEWVANINSNGGNTGYADSVKGRFTISRDNSKNTLYLQMNSLRAEDTAVYYCARVPYDVWMDYWGQGTLVTVSS
VL: not shown
notes: hIgG1 of Ab28
For B4, the “YTS_hTIGI/hGrbs_EFC_Antagonism, 221_hPVR/ICAM” value in assay [1] worked out at 0.0758 µM. Besides, the values for the IC50 in assay [2] and in assay [3] were 1.3 nM and 1.2 nM, respectively. In addition, the EC50 came to 2.7 nM in assay [4] and 0.4 nM in assay [5].

B5: Ab10i2 (antibody, V domains shown)
VH: EVQLLESGGGLVQPGGSLRLSCAASGFTFSSYSMNWVRQAPGKGLEWVAYIKSNSGTKGYADSVKGRFTISRDNSKNTLYLQMNSLRAEDTAVYYCARGPYDYWLDYWGQGTLVTVSS
VL: not shown
notes: hIgG1 of Ab10
B5: the “YTS_hTIGI/hGrbs_EFC_Antagonism, 221_hPVR/ICAM” value in assay [1] is 0.39 µM. Moreover, the IC50 in assay [2] was found to be 1.1 nM; in assay [3], 8.5 nM. Further, the values for the concentration giving a half-maximal response (EC50) in assay [4] and in assay [5] were 0.1 nM and 0.3 nM, respectively.

B6: Ab15i1 (antibody, V domains shown)
VH: EVQLLESGGGLVQPGGSLRLSCAASGFTFSSYSMHWVRQAPGKGLEWVASIWSNSGNTGYADSVKGRFTISRDNSKNTLYLQMNSLRAEDTAVYYCARVPYDYWMDYWGQGTLVTVSS
VL: not shown
notes: hIgG1 of Ab15
As for B6, the “YTS_hTIGI/hGrbs_EFC_Agonism, 221_WT” value in assay [1] is above 1 µM. The “YTS_hTIGI/hGrbs_EFC_Antagonism, 221_hPVR/ICAM” value in assay [1] is above 1 µM. For the same molecule, the IC50 in assay [2] amounted to 1.2 nM; in assay [3], 2.2 nM. In addition, the EC50 in assay [4] was determined as 2.3 nM; in assay [5], 4.8 nM.

B7: Ab28i2 (antibody, V domains shown)
VH: EVQLLESGGGLVQPGGSLRLSCAASGFTFSSYSMHWVRQAPGKGLEWVANINSNGGNTGYADSVKGRFTISRDNSKNTLYLQMNSLRAEDTAVYYCARVPYDVWMDYWGQGTLVTVSS
VL: not shown
notes: mIgG2a of Ab28
For B7, the “YTS_hTIGI/hGrbs_EFC_Antagonism, 221_hPVR/ICAM” value in assay [1] was found to be 0.26 µM. In addition, the IC50 was 1.5 nM in assay [2] and 2 nM in assay [3]. Moreover, the half-maximal effective concentration (EC50) in assay [4] was found to be 2.5 nM; in assay [5] it was 0.6 nM.

B8: Ab22i2 (antibody, V domains shown)
VH: EVQLLESGGGLVQPGGSLRLSCAASGFTFSSYSMHWVRQAPGKGLEWVASIKSSGGSKYYADSVKGRFTISRDNSKNTLYLQMNSLRAEDTAVYYCARVPYDYWMDYWGQGTLVTVSS
VL: not shown
notes: mIgG2a of Ab22
For the molecule B8, the “YTS_hTIGI/hGrbs_EFC_Agonism, 221_WT” value in assay [1] was above 1 µM. The “YTS_hTIGI/hGrbs_EFC_Antagonism, 221_hPVR/ICAM” value in assay [1] is above 1 µM. In addition, the IC50 in assay [2] turned out to be 2.6 nM; in assay [3] it was 38.3 nM. The EC50 stood at 0.2 nM in assay [4] and 1.8 nM in assay [5].
